These results are taken from US20240218342A1, “SITE-SPECIFIC GLYCAN REMODELING OF LYSOSOMAL ENZYMES AND APPLICATIONS THEREOF” (priority 2021, published 2024).

In one experiment the target is Bovine RNase B (bovine) (UniProt P61823).
Experiment [1] deals with GlcNAc-RNase B (67) (bovine) (UniProt P61823).
GlcNAc-RNase B (67) (bovine), sequence (P61823 27-150): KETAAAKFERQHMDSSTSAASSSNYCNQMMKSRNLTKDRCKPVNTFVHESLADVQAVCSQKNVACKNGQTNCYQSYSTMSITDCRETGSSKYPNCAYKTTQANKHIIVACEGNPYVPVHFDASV

Bovine RNase B (bovine), sequence (P61823 27-150): as above

B1: Wild-type Endo-A (enzyme)
chain: STYNGPLSSHWFPEELAQWEPDSDPDAPFNRSHVPLEPGRVANRVNANADKDAHLVSLSALNRHTSGVPSQGAPVFYENTFSYWHYTDLMVYWAGSAGEGIIVPPSADVIDASHRNGVPILGNVFFPPTVYGGQLEWLEQMLEQEEDGSFPLADKLLEVADYYGFDGWFINQETEGADEGTAEAMQAFLVYLQEQKPEGMHIMWYDSMIDTGAIAWQNHLTDRNKMYLQNGSTRVADSMFLNFWWRDQRQSNELAQALGRSPYDLYAGVDVEARGTSTPVQWEGLFPEGEKAHTSLGLYRPDWAFQSSETMEAFYEKELQFWVGSTGNPAETDGQSNWPGMAHWFPAKSTATSVPFVTHFNTGSGAQFSAEGKTVSEQEWNNRSLQDVLPTWRWIQHGGDLEATFSWEEAFEGGSSLQWHGSLAEGEHAQIELYQTELPISEGTSLTWTFKSEHGNDLNVGFRLDGEEDFRYVEGEQRESINGWTQWTLPLDAFAGQTITGLAFAAEGNETGLAEFYIGQLAVGADSEKPAAPNVNVRQYDPDPSGIQLVWEKQSNVHHYRVYKETKHGKELIGTSAGDRIYLEGLVEESKQNDVRLHIEALSETFVPSDARMIDIKSGSF
B1 returned a deglycosylation of RNase B, isolated yield of GlcNAc-RNase B 67 with Bovine RNase B (bovine) of 86%. Besides, the transglycosylation of oxazoline 8 to GlcNAc-RNase B, yield of glycoprotein 68 in experiment [1] came out at 71%.
